# Test results from patent publication US20230279079A1 (CHANG GUNG MEMORIAL HOSPITAL LINKOU, published 2023).
# B1: FD 1D (antibody, V domains shown)
# VH: EVQLVESGGGVVQPGRSLRLSCAASGFTFSSYAMHWVRQAPGKGLEWVAVISYDGSNKYYADSVKGRFTISRDNSKNTLYLQMNSLRAEDTAVYYCARAGSGSYLNWFDPWGQGTLVTVSS
# VL: EIVLTQSPATLSLSPGERATLSCRASQSVSSYLAWYQQKPGQAPRLLIYDASNRATGIPARFSGSGSGTDFTLTISSLEPEDFAVYYCQQRSNWPITFGQGTRLEIK
# B2: EW 9B (antibody, V domains shown)
# VH: EVQLVQSGAEVKKPGASVKVSCKASGYTFTSYYMHWVRQAPGQGLEWMGIINPSGGSTSYAQKFQGRVTMTRDTSTSTVYMELSSLRSEDTAVYYCAREDGVVPAANLMISLEDYYYYGMDVWGQGTTVTVSS
# VL: EIVLTQSPATLSLSPGERATLSCRASQSVSSYLAWYQQKPGQAPRLLIYDASNRATGIPARFSGSGSGTDFTLTISSLEPEDFAVYYCQQRSNWPLTFGGGTKVDIK
# B3: FD 5E (antibody, V domains shown)
# VH: EVQLVESGGVVVQPGGSLRLSCAASGFTFDDYAMHWVRQAPGKGLEWVSLISWDGGSTYYADSVKGRFTISRDNSKNSLYLQMNSLRAEDTALYYCAKDSVRFRYYYGMDVWGQGTTVTVSS
# VL: EIVLTQSPATLSLSPGERATLSCRASQSVSSYLAWYQQKPGQAPRLLIYDASNRATGIPARFSGSGSGTDFTLTISSLEPEDFAVYYCQQRSNWPLTFGPGTKVDIK
# B4: EY 2A (antibody, V domains shown)
# VH: QVQLVESGAEVTKPGDSLIISCKGSGYAFTQYWIGWVRQKPGKGLEWMAMVYPDSSAVFAGGASGVRYRPPFQGQVTISADTSVNTAYLQWDSLKASDTAMYYCVRQERGSNTWYAGNSWGQGTLVTVSS
# VL: DIVMTQSPLSLPVSPGEPASISCRSSQSLLHTDAYNYLDWYLQKPGQSPQLLIYLGSTRASGVPDRFSGSGSGTDFTLKISSVKAEDVGVYYCMQALQTPGTFGQGTKLEIK
# B5: EY 3B (antibody, V domains shown)
# VH: EVQLVESGAEVTKPGESLIISCKGSGYAFTQYWIGWVRQKPGKGLEWMAMVYPDSSAVFAGGASGVRYRPPFQGQVTISADTSVNTAYLQWDSLKASDTAMYYCVRQERGSNTWYAGNSWGQGTLVTVFS
# VL: EIVLTQSPLSLPVSPGEPASISCRSSQSLLHTDAYNYLDWYLQKPGQSPQLLIYLGSTRASGVPDRFSGSGSGTDFTLKISSVKAEDVGVYYCMQALQTPGTFGQGTKVEIR
# Assays:
# [1] = target: T1, SARS-CoV-2 spike extracellular domain (SARS-CoV-2, UniProt P0DTC2 14-1213); experiment: ELISA
# T1 construct: extracellular domain; also called spike protein of SARS-CoV-2
# [2] = target: T2, SARS-CoV-2 spike S1 subunit (SARS-CoV-2, UniProt P0DTC2 16-685); experiment: ELISA
# T2 construct: domain: S1 subunit
# [3] = target: T3, SARS-CoV-2 spike receptor binding domain (RBD) (SARS-CoV-2, UniProt P0DTC2 319-541); experiment: ELISA
# T3 construct: also called SARS-CoV-2 RBD
# [4] = target: T4, SARS-CoV-2 spike S2 subunit (SARS-CoV-2, UniProt P0DTC2 686-1213); experiment: ELISA
# T4 construct: domain: S2 subunit
# [5] = target: T5, SARS spike S1 subunit (severe acute respiratory syndrome …, UniProt P59594 14-667); experiment: ELISA
# T5 construct: domain: S1 subunit
# [6] = target: T6, MERS spike extracellular domain (Middle East respiratory syndrome …, UniProt K9N5Q8 18-1296); experiment: ELISA
# T6 construct: extracellular domain
# [7] = target: T7, Human coronavirus OC43 spike extracellular domain (human coronavirus OC43, UniProt P36334 14-1297); experiment: ELISA
# T7 construct: extracellular domain
# [8] = target: T8, SARS-CoV-2 nucleocapsid in fixed and permeabilised SARS-CoV-2 infected cells (SARS-CoV-2, UniProt P0DTC9 1-419); experiment: immunofluorescence assay
# T8 construct: whole, on cells; also called N antigen
# [9] = target: T9, SARS-CoV-2 nucleocapsid protein (SARS-CoV-2, UniProt P0DTC9 1-419); experiment: ELISA on recombinant protein
# T9 construct: also called N protein
Binder,binding result [1],binding result [2],binding result [3],binding result [4],binding result [5],binding result [6],binding result [7],binding result [8],binding result [9]
B1,binds,no binding,no binding,binds,binds,binds,binds,–,–
B2,binds,–,no binding,no binding,no binding,no binding,no binding,–,–
B3,binds,–,no binding,no binding,no binding,no binding,no binding,–,–
B4,–,–,–,–,–,–,–,binds,binds
B5,–,–,–,–,–,–,–,binds,binds
